# According to US20170072032A1:
# pKd: −log10 of the molar value.
# Columns and labels:
# [1] = target: recombinant human FcRn, biotinylated, immobilized on sensor chip (human) (UniProt P55899); assay: SPR (Biacore 2000), biotinylated human FcRn immobilized, analyte 0.78-200 nM, pH 5.4, 25 C, Langmuir fit with drifting baseline
# [2] = target: neonatal Fc receptor (FcRn), endogenous mouse receptor in placenta / syncytiotrophoblast cells (mouse) (UniProt Q61559); assay: cell-based or functional assay
# [3] = target: recombinant mouse FcRn, biotinylated, immobilized on sensor chip (mouse) (UniProt Q61559); assay: SPR (Biacore 2000), biotinylated mouse FcRn immobilized, analyte 0.78-200 nM, pH 5.4, 25 C, Langmuir fit with drifting baseline
# [4] = target: recombinant mouse FcRn, biotinylated, immobilized on sensor chip (mouse) (UniProt Q61559); assay: SPR (Biacore), immobilized biotinylated mouse FcRn, analyte 0.78-100 nM, pH 6.4; Chi2 0.3
# [5] = target: recombinant mouse FcRn, biotinylated, immobilized on sensor chip (mouse) (UniProt Q61559); assay: SPR (Biacore), immobilized biotinylated mouse FcRn, analyte 0.78-100 nM, pH 5.4; Chi2 10.1
# [6] = target: recombinant mouse FcRn, biotinylated, immobilized on sensor chip (mouse) (UniProt Q61559); assay: SPR (Biacore), immobilized biotinylated mouse FcRn, analyte 0.78-100 nM, pH 6.4; Chi2 3.9
# [7] = target: recombinant mouse FcRn, biotinylated, immobilized on sensor chip (mouse) (UniProt Q61559); assay: SPR (Biacore), immobilized biotinylated mouse FcRn, analyte 0.78-100 nM, pH 5.4; Chi2 2.5
# Sequence of UniProt P55899 (P55899 24-297 limits assumed, form in doubt, chain 1 of 2): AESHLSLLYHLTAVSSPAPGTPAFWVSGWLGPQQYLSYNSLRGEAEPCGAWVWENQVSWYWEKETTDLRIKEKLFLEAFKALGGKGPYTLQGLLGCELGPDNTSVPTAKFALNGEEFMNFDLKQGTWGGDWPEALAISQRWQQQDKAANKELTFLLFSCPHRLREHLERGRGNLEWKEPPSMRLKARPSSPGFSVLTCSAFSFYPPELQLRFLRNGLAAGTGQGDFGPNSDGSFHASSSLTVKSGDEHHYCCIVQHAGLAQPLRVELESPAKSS
# Sequence of UniProt P55899 (chain, as listed by the source limits assumed, form in doubt, chain 2 of 2): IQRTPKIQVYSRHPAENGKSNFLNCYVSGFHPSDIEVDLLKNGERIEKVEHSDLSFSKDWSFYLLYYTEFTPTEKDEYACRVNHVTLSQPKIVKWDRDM
substance,measurement,setting,value
"anti-CD20 rituximab monoclonal antibody (Roche), used as human IgG1 control",pKd,[1],8.19
same,koff,[1],0.00492 s⁻¹
same,kon,[1],765000 M⁻¹ s⁻¹
same,diabetes-free offspring after IgG pre-treatment of pregnant mice 24 h before PPI-Fc (% diabetes-free mice),[2],49
same,pKd,[3],8.82
same,koff,[3],0.00248 s⁻¹
same,kon,[3],1.63e+06 M⁻¹ s⁻¹
PPI2-Fc fusion protein (mouse preproinsulin 2 fused to the CH2-CH3 Fc domain of human IgG1) (from UniProt P01326 25-110),pKd,[1],7.82
same,koff,[1],0.00318 s⁻¹
same,kon,[1],208000 M⁻¹ s⁻¹
same,pKd,[3],8.27
same,koff,[3],0.00159 s⁻¹
same,kon,[3],292000 M⁻¹ s⁻¹
A2Fc (A2 domain of FVIII fused to mouse Fc gamma 1) (from UniProt P00451 392-759) (Fc fusion),pKd,[4],7.28
same,koff,[4],0.0016 s⁻¹
same,kon,[4],30000 M⁻¹ s⁻¹
same,pKd,[5],8.07
same,koff,[5],0.00218 s⁻¹
same,kon,[5],256000 M⁻¹ s⁻¹
C2Fc (C2 domain of FVIII fused to mouse Fc gamma 1) (from UniProt P00451 2192-2351) (Fc fusion),pKd,[6],7.28
same,koff,[6],0.00347 s⁻¹
same,kon,[6],65000 M⁻¹ s⁻¹
same,pKd,[7],8.43
same,koff,[7],0.0011 s⁻¹
same,kon,[7],292000 M⁻¹ s⁻¹
